Test results taken from patent publication US20040038297.

T1: complement factor C4, P0C0L4
T1 chain: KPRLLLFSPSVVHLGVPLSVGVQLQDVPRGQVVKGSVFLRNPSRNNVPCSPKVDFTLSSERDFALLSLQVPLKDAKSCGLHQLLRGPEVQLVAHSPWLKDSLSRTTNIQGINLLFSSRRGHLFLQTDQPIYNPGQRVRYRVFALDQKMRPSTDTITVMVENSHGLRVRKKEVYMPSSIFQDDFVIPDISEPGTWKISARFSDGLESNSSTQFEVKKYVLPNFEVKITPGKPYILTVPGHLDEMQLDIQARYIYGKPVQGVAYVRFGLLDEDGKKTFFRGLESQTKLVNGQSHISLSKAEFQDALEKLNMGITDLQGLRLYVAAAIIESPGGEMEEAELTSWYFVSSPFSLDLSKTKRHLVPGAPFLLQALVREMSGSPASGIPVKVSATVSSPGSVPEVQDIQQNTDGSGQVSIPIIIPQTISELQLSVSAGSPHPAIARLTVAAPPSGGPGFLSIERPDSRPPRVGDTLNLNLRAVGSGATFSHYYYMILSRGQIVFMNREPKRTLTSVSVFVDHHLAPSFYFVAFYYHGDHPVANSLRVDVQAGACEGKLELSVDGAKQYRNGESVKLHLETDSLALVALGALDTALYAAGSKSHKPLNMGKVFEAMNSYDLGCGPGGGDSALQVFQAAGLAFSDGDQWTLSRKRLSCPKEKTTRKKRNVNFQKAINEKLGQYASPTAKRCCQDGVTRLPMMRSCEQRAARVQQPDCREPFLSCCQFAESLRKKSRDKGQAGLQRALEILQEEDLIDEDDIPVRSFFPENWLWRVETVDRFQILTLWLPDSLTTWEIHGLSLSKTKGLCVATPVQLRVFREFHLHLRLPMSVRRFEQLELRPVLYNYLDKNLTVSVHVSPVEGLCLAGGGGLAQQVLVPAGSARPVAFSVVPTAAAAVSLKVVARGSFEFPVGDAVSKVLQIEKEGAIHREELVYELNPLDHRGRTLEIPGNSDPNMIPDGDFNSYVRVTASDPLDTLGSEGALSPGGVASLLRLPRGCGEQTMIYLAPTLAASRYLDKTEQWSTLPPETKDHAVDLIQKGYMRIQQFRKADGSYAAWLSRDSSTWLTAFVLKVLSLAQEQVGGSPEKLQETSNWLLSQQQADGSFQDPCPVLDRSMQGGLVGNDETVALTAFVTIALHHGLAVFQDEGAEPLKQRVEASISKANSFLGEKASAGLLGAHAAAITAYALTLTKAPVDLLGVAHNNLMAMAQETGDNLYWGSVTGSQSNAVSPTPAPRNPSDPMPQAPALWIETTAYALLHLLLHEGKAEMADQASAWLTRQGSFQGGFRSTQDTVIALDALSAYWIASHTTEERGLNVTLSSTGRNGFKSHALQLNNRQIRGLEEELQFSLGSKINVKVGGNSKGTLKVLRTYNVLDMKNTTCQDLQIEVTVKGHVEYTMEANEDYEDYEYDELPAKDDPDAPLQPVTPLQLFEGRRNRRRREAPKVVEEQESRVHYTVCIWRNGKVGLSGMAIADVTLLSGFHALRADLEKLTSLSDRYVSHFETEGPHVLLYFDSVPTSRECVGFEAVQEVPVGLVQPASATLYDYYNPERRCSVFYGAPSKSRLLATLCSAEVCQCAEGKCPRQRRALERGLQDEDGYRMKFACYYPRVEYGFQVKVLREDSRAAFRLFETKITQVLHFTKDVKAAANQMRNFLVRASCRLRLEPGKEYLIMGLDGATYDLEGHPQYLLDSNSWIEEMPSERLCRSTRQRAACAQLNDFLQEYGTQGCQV

B1: MASP-1 (MBP-associated serine protease) (protein)
chain: HTVELNNMFGQIQSPGYPDSYPSDSEVTWNITVPDGFRIKLYFMHFNLESSYLCEYDYVKVETEDQVLATFCGRETTDTEQTPGQEVVLSPGSFMSITFRSDFSNEERFTGFDAHYMAVDVDECKEREDEELSCDHYCHNYIGGYYCSCRFGYILHTDNRTCRVECSDNLFTQRTGVITSPDFPNPYPKSSECLYTIELEEGFMVNLQFEDIFDIEDHPEVPCPYDYIKIKVGPKVLGPFCGEKAPEPISTQSHSVLILFHSDNSGENRGWRLSYRAAGNECPELQPPVHGKIEPSQAKYFFKDQVLVSCDTGYKVLKDNVEMDTFQIECLKDGTWSNKIPTCKIVDCRAPGELEHGLITFSTRNNLTTYKSEIKYSCQEPYYKMLNNNTGIYTCSAQGVWMNKVLGRSLPTCLPVCGLPKFSRKLMARIFNGRPAQKGTTPWIAMLSHLNGQPFCGGSLLGSSWIVTAAHCLHQSLDPEDPTLRDSDLLSPSDFKIILGKHWRLRSDENEQHLGVKHTTLHPQYDPNTFENDVALVELLESPVLNAFVMPICLPEGPQQEGAMVIVSGWGKQFLQRFPETLMEIEIPIVDHSTCQKAYAPLKKKVTRDMICAGEKEGGKDACAGDSGGPMVTLNRERGQWYLVGTVSWGDDCGKKDRYGVYSYIHHNKDWIQRVTGVRN
B2: C1s (protein)
chain: EPTMYGEILSPNYPQAYPSEVEKSWDIEVPEGYGIHLYFTHLDIELSENCAYDSVQIISGDTEEGRLCGQRSSNNPHSPIVEEFQVPYNKLQVIFKSDFSNEERFTGFAAYYVATDINECTDFVDVPCSHFCNNFIGGYFCSCPPEYFLHDDMKNCGVNCSGDVFTALIGEIASPNYPKPYPENSRCEYQIRLEKGFQVVVTLRREDFDVEAADSAGNCLDSLVFVAGDRQFGPYCGHGFPGPLNIETKSNALDIIFQTDLTGQKKGWKLRYHGDPMPCPKEDTPNSVWEPAKAKYVFRDVVQITCLDGFEVVEGRVGATSFYSTCQSNGKWSNSKLKCQPVDCGIPESIENGKVEDPESTLFGSVIRYTCEEPYYYMENGGGGEYHCAGNGSWVNEVLGPELPKCVPVCGVPREPFEEKQRIIGGSDADIKNFPWQVFFDNPWAGGALINEYWVLTAAHVVEGNREPTMYVGSTSVQTSRLAKSKMLTPEHVFIHPGWKLLEVPEGRTNFDNDIALVRLKDPVKMGPTVSPICLPGTSSDYNLMDGDLGLISGWGRTEKRDRAVRLKAARLPVAPLRKCKEVKVEKPTADAEAYVFTPNMICAGGEKGMDSCKGDSGGAFAVQDPNDKTKFYAAGLVSWGPQCGTYGLYTRVKNYVDWIMKTMQENSTPRED
B3: mannan-binding lectin associated serine protease-2 (MASP-2) (protein)
chain: TPLGPKWPEPVFGRLASPGFPGEYANDQERRWTLTAPPGYRLRLYFTHFDLELSHLCEYDFVKLSSGAKVLATLCGQESTDTERAPGKDTFYSLGSSLDITFRSDYSNEKPFTGFEAFYAAEDIDECQVAPGEAPTCDHHCHNHLGGFYCSCRAGYVLHRNKRTCSALCSGQVFTQRSGELSSPEYPRPYPKLSSCTYSISLEEGFSVILDFVESFDVETHPETLCPYDFLKIQTDREEHGPFCGKTLPHRIETKSNTVTITFVTDESGDHTGWKIHYTSTAHACPYPMAPPNGHVSPVQAKYILKDSFSIFCETGYELLQGHLPLKSFTAVCQKDGSWDRPMPACSIVDCGPPDDLPSGRVEYITGPGVTTYKAVIQYSCEETFYTMKVNDGKYVCEADGFWTSSKGEKSLPVCEPVCGLSARTTGGRIYGGQKAKPGDFPWQVLILGGTTAAGALLYDNWVLTAAHAVYEQKHDASALDIRMGTLKRLSPHYTQAWSEAVFIHEGYTHDAGFDNDIALIKLNNKVVINSNITPICLPRKEAESFMRTDDIGTASGWGLTQRGFLARNLMYVDIPIVDHQKCTAAYEKPPYPRGSVTANMLCAGLESGGKDSCRGDSGGALVFLDSETERWFVGGIVSWGSMNCGEAGQYGVYTKVINYIPWIENIISDF

Molecular target: T1, complement factor C4, P0C0L4

Protein	C4 deposition on a Western blot incubated with human serum (C4 converting activity)
B1	no C4 deposition was observed at positions corresponding to MASP-1
B2	C4 deposition, which could be inhibited by enzyme inhibitors, was observed at a position corresponding to C1r and C1s, which are not separated by the technique employed
B3	C4 was deposited at a position corresponding to the MASP-2 band
